Measurements published in the Human Domainome abundance scans (Beltran et al. 2025).

B1: Lysine-specific demethylase 2B, residues 656 to 722; numbered along this chain, Q8NHM5 (parent)
chain: LPHTAVCLVCGEAGKEDTVEEEEGKFNLMLMECSICNEIIHPGCLKIKESEGVVNDELPNCWECPKC

Variants of: B1
Experiment: abundance fitness (aPCA) (normalised: wild type 0, dead -1); higher = more abundant; growth selection in yeast, the domain comes from the species named
Conditions: Homo sapiens

Abundance fitness of substitutions, site by site:
K48: Y 0.011, V -0.261, R -0.168, S -0.155, P -0.159, M 0.157, E 0.152, W -0.119, Q 0.108, C -0.179, F -0.078, G -0.056, N 0.222
E51: S -0.131, R -0.001, A -0.044, V -0.124, L -0.385, P -0.328, C 0.056, Q -0.239, H 0.097, K -0.027, Y -0.172, M -0.19, G -0.197, T 0.072, W -0.14
S50: H -0.208, G 0.169, M -0.155, Q -0.111, I -0.036, W -0.156, E 0.034, D 0.085, F 0.039, Y 0.312, P 0.087, K -0.025, C 0.078, R -0.128, V 0.039
G52: V 0.018, S -0.146, T -0.122, K -0.164, Q -0.094, R 0.067, I -0.525, N -0.09, F -0.028, H -0.086, W -0.365, D -0.121, L -0.142, A 0.224, P 0.171, E -0.016, C -0.051
V53: P -0.15, T 0.078, Q 0.164, S 0.006, A 0.047, G -0.078, E 0.003, N -0.136, C -0.027, M -0.045, R -0.148, H -0.346, L -0.119, I -0.07, K -0.167, F -0.343
E57: H 0.001, L -0.042, I -0.196, D 0.103, T -0.007, V -0.168, M -0.079, R -0.055, Q -0.118, A 0.053, P -0.296, W -0.305, F -0.107, S 0.102, Y -0.179, C 0.036, G -0.065
E49: N 0.262, L -0.077, A 0.104, D -0.198, T 0.045, P 0.024, G 0.008, C -0.039, K -0.123, Q -0.079, S -0.061, Y -0.187, I -0.244, W -0.235, R -0.103, M -0.005
N55: S 0.087, M -0.203, E -0.165, P -0.227, L -0.188, G -0.022, V -0.236, W -0.389, D -0.031, Q -0.189, C -0.202, A -0.089, H 0.049, Y -0.386, R -0.015, T -0.101, K -0.591
D56: E -0.075, T 0.069, C -0.233, S 0.07, W -0.401, P 0.099, Q -0.049, M 0.123, I -0.685, K 0.179, F 0.023, H 0.692, G 0.079, A 0.001, L -0.114, R 0.123, V -0.102, Y 0.063, N -0.017
V54: C -0.275, S -0.284, T 0.126, I 0.126, R 0.042, E 0.024, K -0.125, G -0.182, A 0.089, W -0.124, Q 0.135, D -0.119, P -0.065
I47: T 0.08, S -0.002, Q -0.167, N -0.307, Y -0.007, V 0.006, M 0.16, W -0.09, R -0.207
